Experimental data published in patent US20080207521A1, “PEPTIDE LIGAND TO IMPAIR CANCER CELL MIGRATION” (priority 2005, published 2008).

Key:
Frz-5 receptor [1] = target: T1, Frz-5 receptor (Homo sapiens, UniProt Q13467); test: cell-based or functional assay
Src kinase = target: T2, Src kinase (Homo sapiens, UniProt P12931); test: Src activity in MDA-MB-468 cells (Western blot); assay type: cell-based; settings: PP1 10 μM for last 30 min; with or without serum
T2 construct: Src activity in MDA-MB-468 cells in the absence and presence of PP1 and/or serum; endogenous in cells; host or cells: MDA-MB-468
T2 sequence (P12931 whole entry): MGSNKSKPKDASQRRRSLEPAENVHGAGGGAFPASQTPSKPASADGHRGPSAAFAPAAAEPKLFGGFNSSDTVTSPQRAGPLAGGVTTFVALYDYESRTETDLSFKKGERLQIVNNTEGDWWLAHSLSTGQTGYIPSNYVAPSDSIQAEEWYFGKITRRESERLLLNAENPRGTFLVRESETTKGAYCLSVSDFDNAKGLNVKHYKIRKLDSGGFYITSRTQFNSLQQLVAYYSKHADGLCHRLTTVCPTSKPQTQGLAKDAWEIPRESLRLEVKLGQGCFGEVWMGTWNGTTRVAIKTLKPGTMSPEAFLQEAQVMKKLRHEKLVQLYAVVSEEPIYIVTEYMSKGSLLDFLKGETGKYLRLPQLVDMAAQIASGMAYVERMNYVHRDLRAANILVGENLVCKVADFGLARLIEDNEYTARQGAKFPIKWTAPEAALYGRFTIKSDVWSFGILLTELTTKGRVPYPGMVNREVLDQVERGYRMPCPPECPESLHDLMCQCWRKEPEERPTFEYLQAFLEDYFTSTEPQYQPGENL
Experimental: Western blot analysis was performed to evaluate the protein expressions of Wnt-5a, EGF-receptor, Src and Frz-2 and 5 in HB2 and MDA-MB-468 cells. […] The Wnt-5a Ab has been produced in the laboratory, as previously described (9, 10). The cells were lysed and boiled in two times concentrated Laemmli buffer. The protein content was determined in each sample and adjusted to ensure loading of equal amounts of protein in each lane, 50 mM DTT was then added and the lysates were boiled for 10 min, before separation by SDS gel electrophoresis. The proteins were subsequently transferred to PVDF membranes. The membranes were blocked in 3% BSA or 5% non-fat milk for 45 min, incubated with the primary Ab for 1 h (1:2,000 for Wnt-5a, 1:1,000 for activated EGF-receptor, total EGF-receptor, actin, active Src and total Src, and 1:5,000 for Frz-2 and Frz-5), and then for 1 h with a horseradish peroxidase conjugated secondary Ab. The Ab-antigen complex was detected using an enhanced chemiluminescence detection kit from Amersham Pharmacia Biotech (Uppsala, Sweden). In the case of re-probing, the membranes were stripped with a Reblot Strong solution from Chemicon International (Temecula, Calif.).
(A) Effect of pre-treatment (30 min) with the Src-inhibitor PP1 (10 μM) on adhesion induced DDR1 phosphorylation in MDA-MB-468 cells. The blots shown are representative of 3 separate experiments. […]

DDR1 = DDR1 phosphorylation in MDA-MB-468 cells (immunoprecipitation/Western blot); assay type: cell-based, human
Experimental: The phosphorylation status of DDR1 was analyzed as previously described (12), with the following modifications. After serum-depletion for 16 h, the cells were detached with Versene and then allowed to adhere to collagen I for 60 (MDA-MB-468) or 90 min (HB2) at 37° C. The experiments were terminated by lysing both adherent and non-adherent cells with a lysis buffer (50 mM Tris pH 7.4, 1% Triton-X, 5 mM EDTA, 5 mM EGTA, 50 mM NaCl, 10 μg/ml aprotinin, 2.5 mM benzamidine, 1 mM pefabloc, 1 μg/ml leupeptin and 1 mM Na3VO4). For immunoblotting an anti-DDR1 rabbit polyclonal Ab, sc-532 (Santa Cruz Biotech, Santa Cruz, Calif.) was used at a dilution of 1:10,000. The Ab recognizes DDR1b/c, which is essential because collagen only induces phosphorylation of the b or c isoforms of DDR1 in mammary epithelial cells (10).
Peptide-induced effects on adhesion and DDR1 phosphorylation in MDA-MB-468 breast cancer cells. (A) Western blot analysis of Wnt-5a protein expression in Wnt-5a antisense and Wnt-5a over-expressing HB2 cells in comparison to MDA-MB-468 tumour cells. […] The amounts of adhesive cells were analyzed as described in the methods and the results are given as means±SEM of 8 separate experiments. […] The amount of adherent cells was estimated as in panel A and expressed as means±SEM of 6 separate experiments, ns=not significant, ** p<0.01 and *** p<0.001. […]

Frz-5 receptor [2] = target: T1, Frz-5 receptor; test: MDA-MB-468 cell migration with Frz-5 receptor blocking Ab or control anti-Frz-2 Ab; assay type: cell-based; parameters: endogenous in cells; host or cells: MDA-MB-468; settings: recombinant Wnt-5a 0.4 μg/ml; Ab 5 μg/ml; 18 h
Experimental: The peptide […], corresponding to amino acids 198-217 in the ectodomain of the human Frz-5 receptor was as previously described used to generate a Frz-5 receptor blocking Ab (13). The peptide […], corresponding to amino acids 202-220 in the ectodomain of the human Frz-2 receptor, was used to generate a control anti-Frz-2 Ab. The synthesis of the peptides (the italic letters indicate the Frz-5 and Frz-2 sequences, the cysteine was added for raising and purifying the Ab) and the production of rabbit anti-Frz-5 and anti-Frz-2 antisera were managed by AgriSera (Vännäs, Sweden; permit A69-04 from Ume(a) animal ethic committe). The antisera were affinity purified in the laboratory by coupling the respective peptide antigen to Sulfolink Sepharose over which the respective antisera was then eluted.
Cell migration analyses were performed in a modified Boyden chamber with a polycarbonate membrane (10 μm thick with a porous diameter of 8.0 μm) separating the two chambers (Transwell®; Costar, Cambridge, Mass.). As indicated in some experiments the membranes were coated with collagen by adding collagen-I (10 μg/ml) diluted in 0.25% acetic acid to the upper chamber for 1 h at 37° C., after which it was washed three times with PBS. […] After washing the membranes the number of stained cells per membrane and well was counted in an inverted microscope. […]

[3] = tested on: Wnt-5a antisense HB2 cells; test: Migration of Wnt-5a antisense HB2 cells in modified Boyden chamber; assay type: cell-based, human; settings: recombinant Wnt-5a 0.4 μg/ml; 18 h
Experimental: Cell migration analyses were performed in a modified Boyden chamber with a polycarbonate membrane (10 μm thick with a porous diameter of 8.0 μm) separating the two chambers (Transwell®; Costar, Cambridge, Mass.). As indicated in some experiments the membranes were coated with collagen by adding collagen-I (10 μg/ml) diluted in 0.25% acetic acid to the upper chamber for 1 h at 37° C., after which it was washed three times with PBS. Each experiment was initiated by detaching the cells by Versene treatment for 10-20 min at 37° C., washed, and re-suspended as a single cell suspension in serum-free DMEM medium supplemented with 0.5% BSA. Together with the indicated agonist a 0.2 ml cell suspension (containing 25,000 MDA-MB-468 or 50,000 HB2 cells) was then added to the upper chamber of the transwell. The lower chamber was filled with 0.6 ml serum-free but BSA-containing DMEM medium supplemented with 1 ng/ml of the chemoattractant IGF-I. As a control, IGF-I was excluded in some wells in each separate experiment. The cells were allowed to migrate in the Boyden chamber for 18 h at 37° C. in a humidified atmosphere of 95% air and 5% CO2. The experiments were terminated by removing the non-migratory cells with a cotton-tipped applicator from the upper surface of the membranes. The remaining cells on the lower surface that had migrated through the membrane were stained for 20 min with 0.5% crystal violet diluted in 20% methanol/80% water. After washing the membranes the number of stained cells per membrane and well was counted in an inverted microscope. The value from each separate experiment represents the median value of three individual wells.
Effects of the selected and pure peptides on the ability of Wnt-5a antisense HB2 cells to adhere and migrate. (A-E) The ability of the cells to adhere to collagen type I-coated wells was analyzed as previously described for FIG. 2 in the absence or presence of different concentrations of the indicated peptide. (F) Effect of the indicated peptides on migration of Wnt-5a antisense HB2 in a transwell migration assay. The cells were allowed to migrate for 18 h in the absence or presence of 100 μM peptide or 0.4 μg/ml of recombinant Wnt5a. The data are given as means±SEM of 6-7 separate experiments, each performed in triplicate. * p<0.05 and ** p<0.01.

T1 sequence (Q13467 27-585): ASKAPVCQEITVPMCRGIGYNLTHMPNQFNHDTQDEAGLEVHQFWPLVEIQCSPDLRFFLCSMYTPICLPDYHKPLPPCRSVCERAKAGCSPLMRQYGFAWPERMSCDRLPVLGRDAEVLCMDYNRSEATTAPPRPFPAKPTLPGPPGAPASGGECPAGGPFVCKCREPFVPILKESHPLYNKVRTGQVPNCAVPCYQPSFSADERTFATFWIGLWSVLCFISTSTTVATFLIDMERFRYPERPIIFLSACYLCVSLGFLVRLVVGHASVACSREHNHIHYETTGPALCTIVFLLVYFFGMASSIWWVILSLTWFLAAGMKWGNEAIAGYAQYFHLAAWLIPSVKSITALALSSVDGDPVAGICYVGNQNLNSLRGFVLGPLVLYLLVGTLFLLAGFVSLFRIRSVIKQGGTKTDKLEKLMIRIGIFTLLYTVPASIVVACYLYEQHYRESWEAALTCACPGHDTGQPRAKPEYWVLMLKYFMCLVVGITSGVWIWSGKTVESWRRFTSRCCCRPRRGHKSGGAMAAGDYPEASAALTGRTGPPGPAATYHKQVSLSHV

## formylated tripeptide fMet-Leu-Phe
Frz-5 receptor [1]
  MDA-MB-468 cell adhesion to collagen I: 15.7

## Cc1ccc(-c2nn(C(C)(C)C)c3ncnc(N)c23)cc1 [PP1, 4-amino-5-(4-methyl-phenyl)-7-(t-butyl)pyrozolo-D-3,4-pyrimidine, reference compound]
Src kinase
  Src kinase activity: abolished
DDR1; PP1 10 μM for 30 min
  basal phosphorylation of DDR1: abolished the basal phosphorylation of DDR1

B1: recombinant Wnt-5a: recombinant mouse Wnt-5a (R&D Systems) (protein)
chain: IIGAQPLCSQLAGLSQGQKKLCHLYQDHMQYIGEGAKTGIKECQYQFRHRRWNCSTVDNTSVFGRVMQIGSRETAFTYAVSAAGVVNAMSRACREGELSTCGCSRAARPKDLPRDWLWGGCGDNIDYGYRFAKEFVDARERERIHAKGSYESARILMNLHNNEAGRRTVYNLADVACKCHGVSGSCSLKTCWLQLADFRKVGDALKEKYDSAAAMRLNSRGKLVQVNSRFNSPTTQDLVYIDPSPDYCVRNESTGSLGTQGRLCNKTSEGMDGCELMCCGRGYDQFKTVQTERCHCKFHWCCYVKCKKCTEIVDQFVCK
modifications: left off: small tags and cut ends
Frz-5 receptor [2]
  decrease in migration in presence of anti-Frz-5 or anti-Frz-2 Ab: mediated via the Frz-5 receptor
[3]
  migration: effectively decreased the migration
DDR1; recombinant Wnt-5a 0.8 μg/ml, 60 min on collagen I
  level of DDR1 phosphorylation: neither the pure peptides, CM nor recombinant Wnt-5a were able to further increase
